Assay results as given in US20200299384A1 (published 2020).
Changes are numbered by the printed parent chain.

B1: WBP3311_2.166.48 (antibody, IgG2a, V domains shown)
VH: QVQLQQSGPELVKPGASVKIACKASGYSFTTYYIHWVKQRPGQGLEWIGWIFPGNDNIKYSEKFKGKATLTADTSSSTAYMQLSSLTSEDSAVYFCAIDSVSIYYFDYWGQGTTLTVSS
VL: DIVMSQSPSSLAVSAGEKVTMSCKSSQSLLNSRTRKNYLAWYQQKPGQSPKLLIYWASTRKSGVPDRFTGSGSGTDFTLTINSVQAEDLAVYYCTQSFILRTFGGGTKLEIK
notes: Mouse monoclonal antibody from hybridoma; also called W3311-2.166.48; W3311_2.166.48
B2: WBP3311_2.166.48-z1-uIgG1K (antibody, V domains shown)
VH: QVQLVQSGAEVKKPGSSVKVSCKASGYSFTTYYIHWVRQAPGQGLEWMGWIFPGNDNIKYSEKFKGRVTITADKSTSTAYMELSSLRSEDTAVYYCAIDSVSIYYFDYWGQGTLVTVSS
VL: DIVMTQSPDSLAVSLGERATINCKSSQSLLNSRTRKNYLAWYQQKPGQPPKLLIYWASTRKSGVPDRFSGSGSGTDFTLTISSLQAEDVAVYYCTQSFILRTFGGGTKVEIK
notes: Humanized antibody; uIgG1K means human IgG1 constant region and kappa light chain; expressed in 293F cells; also called W3311-2.166.48-z1-uIgG1K
B3: WBP3311_2.306.4-z1-uIgG1K (antibody, V domains shown)
VH: QVQLVQSGAEVKKPGSSVKVSCKASGFAFTDYYIHWVRQAPGQGLEWMGWISPGNVNTKYNENFKGRVTITADKSTSTAYMELSSLRSEDTAVYYCARDGYSLYYFDYWGQGTLVTVSS
VL: B2 VL with K61Q, F98H, I99T
notes: Humanized antibody; uIgG1K means human IgG1 constant region and kappa light chain; expressed in 293F cells; also called W3311-2.306.4-z1-uIgG1K
B4: WBP3311_2.615.8 (antibody, V domains shown)
VH: QVQLQQSGPELVKPGTSMKISCKASGYSFTDFYTHWVRQRPGQGLEWIGWIFPGSDNIKYNEKFKGKATLTADTSSSTAYMQLSSLTSEDSAVYFCARDSVSVYYFDYWGQGTTLTVSS
VL: B1 VL with S14T, S32I, K61D, N82S
notes: Mouse monoclonal antibody from hybridoma; also called W3311-2.615.8
B5: WBP3311_2.400.5 (antibody, V domains shown)
VH: QVQLQQSGPELVNPGASVKISCKASGYSFTNYYLHWVKQRPGQGLEWIGWIFPESDNTKYNEKLKGKATLTADTSSDTAYMHLSSLTFEDSAVYFCARDSVGNYFFDFWGQGTTLTVSS
VL: B1 VL with S22R, L30V, S32N, S49P, K61E, N82S, T95A
notes: Mouse monoclonal antibody from hybridoma; also called W3311-2.400.5
B6: WBP3311_2.383.47 (antibody, V domains shown)
VH: QVQLQQSGPELVKPGASVRISCKTSGFTFTNYYIHWVIQRPGQGLEWIGWISPENGNTKYNENFQDKATLTADISSSTAYMHLSSLTSEDSAVYFCARDGYSLYYFDYWGQGTTLTVSS
VL: B1 VL with A12T, T59I, K61V, D76T, N82S, S83G, F98H, I99T
notes: Mouse monoclonal antibody from hybridoma
B7: WBP331_2.488.33 (antibody, V domains shown)
VH: QVQLQQSGPELVKPGTSVKISCKASGFSFTNYYIHWVKQRPGQGPEWIGWIFPGTVNTKYNEKFKGKATLTADTSSNTAFMQLSSLTSADSAVYFCARDSVGIYYFDFWGLGTTLTVSS
VL: B1 VL with M21V, S32N, K61E, N82S
notes: Mouse monoclonal antibody from hybridoma; also called WBP3311_2.488.33; W3311-2.488.33
B8: WBP3311_2.306.4 (antibody, IgG2b, V domains shown)
VH: QVQLQQSGPELVKPGASVRISCKASGFAFTDYYIHWVKQRPGQGLEWIGWISPGNVNTKYNENFKGRATLTADLSSSTAYMQLSSLTSEDSAVYFCARDGYSLYYFDYWGQGTTLTVSS
VL: B1 VL with A12T, K61Q, D76A, N82S, S83G, Y93F, F98H, I99T
notes: Mouse monoclonal antibody from hybridoma; also called W3311-2.306.4; W3311-2.306.4-mIgG2bK
B9: WBP3311_2.482.5 (antibody, V domains shown)
VH: QVQLQQSGPELVKPGSSVKISCKPSGYTFTTYYIHWVKQRPGQGLEWIGWIFPGSDNIKYNENFKDKATLTADTSSSTAYMQLSSLTSEDSAVYFCARDSVSRYYFDYWGQGTILTVSS
VL: B1 VL with L30V, S32D, Q48L, K61E, N82S, T95A
notes: Mouse monoclonal antibody from hybridoma; also called W3311-2.482.5
B10: WBP3311_2.844.8 (antibody, V domains shown)
VH: B8 VH
VL: B1 VL with A12T, K61E, D76A, N82S, S83G, Y93F, F98H, I99T
notes: Mouse monoclonal antibody from hybridoma; also called W3311-2.844.8; clone 2.844.8

molecular target: T1, Cynomolgus Monkey CD3 epsilon protein (Cynomolgus monkey, UniProt Q95LI5 22-117); assay: ELISA, antigen coated on plate
T1 construct: Bought protein; also called Cyno-Monkey CD3epsilon
T1 sequence (looked up): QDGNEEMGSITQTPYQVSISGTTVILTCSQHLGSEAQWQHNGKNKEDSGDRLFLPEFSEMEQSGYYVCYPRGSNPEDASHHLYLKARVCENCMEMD

| Binder | EC50 |
| --- | --- |
| B1 | 0.125 nM |
| B2 | 0.043 nM |
| B3 | 0.043 nM |

molecular target: T2, Human CD3 Gamma (CD3gamma) protein (human, UniProt P09693 23-116); assay: ELISA, antigen coated on plate, HRP-labelled 2nd antibody
T2 construct: extracellular domain; Bought protein
Experimental: (§1) Human CD3epsilon, CD3delta and CD3gamma proteins were pre-coated in 96-well plates, respectively. The binding affinity of eight mAbs at various concentrations to these three different CD3 protein extracellular domain was detected by corresponding HRP labeled 2nd antibodies. The binding EC₅₀ (concentration of the test antibody when reaching half maximum binding) were analyzed by using GraphPad Prism software equation: Nonlinear regression (curve fit)—log (agonist) vs. response-Variable slope.

T2 sequence (P09693 23-116): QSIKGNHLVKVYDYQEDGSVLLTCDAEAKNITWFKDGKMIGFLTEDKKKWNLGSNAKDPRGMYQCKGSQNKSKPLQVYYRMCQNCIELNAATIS

| Binder | ELISA (A450) |
| --- | --- |
| B1 | 0.05 A450 |
| B4 | 0.05 A450 |
| B5 | 0.05 A450 |
| B6 | 0.05 A450 |
| B7 | 0.06 A450 |
| B8 | 0.06 A450 |
| B9 | 0.06 A450 |
| B10 | 0.07 A450 |

molecular target: T3, Human CD3 epsilon (CD3epsilon) protein (His Tag) (human, UniProt P07766 23-126); assay: as above
T3 construct: extracellular domain; Bought protein; also called recombinant human CD3epsilon ECD; not shown: His tag
Experimental: as §1

T3 sequence (P07766 23-126): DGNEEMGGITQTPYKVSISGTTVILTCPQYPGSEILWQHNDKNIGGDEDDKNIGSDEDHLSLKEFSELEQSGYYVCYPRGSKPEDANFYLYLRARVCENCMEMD

| Binder | ELISA (A450) |
| --- | --- |
| B1 | 1.64 A450 |
| B4 | 1.55 A450 |
| B5 | 1.57 A450 |
| B6 | 1.61 A450 |
| B7 | 1.7 A450 |
| B8 | 1.46 A450 |
| B9 | 1.33 A450 |
| B10 | 1.54 A450 |

molecular target: T4, Human CD3 delta (CD3 delta) protein (His Tag) (human, UniProt P04234 22-105); assay: as above
T4 construct: extracellular domain; Bought protein; not shown: His tag
Experimental: as §1

T4 sequence (P04234 22-105, stated change not applied): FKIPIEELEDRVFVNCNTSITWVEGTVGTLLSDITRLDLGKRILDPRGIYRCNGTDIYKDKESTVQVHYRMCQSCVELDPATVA

| Binder | ELISA (A450) |
| --- | --- |
| B1 | 0.05 A450 |
| B4 | 0.05 A450 |
| B5 | 0.05 A450 |
| B6 | 0.05 A450 |
| B7 | 0.05 A450 |
| B8 | 0.05 A450 |
| B9 | 0.05 A450 |
| B10 | 0.06 A450 |

molecular target: T5, human CD3 expressed on cells (Jurkat cells; human CD4 T cells) (human, UniProt P07766 23-207); assay: flow cytometry on Jurkat cells, one site saturation fit
T5 construct: whole, on cells; also called human CD3 receptor on T cell surface; human CD3 expressing cells (Jurkat cells)
T5 sequence (P07766 23-207): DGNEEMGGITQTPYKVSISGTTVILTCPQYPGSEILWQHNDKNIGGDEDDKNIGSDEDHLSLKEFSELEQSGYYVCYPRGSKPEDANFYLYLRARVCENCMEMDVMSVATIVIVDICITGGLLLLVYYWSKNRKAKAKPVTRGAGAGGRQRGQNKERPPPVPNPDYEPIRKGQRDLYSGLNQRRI

| Binder | Kd |
| --- | --- |
| B2 | 0.201 nM |
| B3 | 0.053 nM |

molecular target: T3, Human CD3 epsilon (CD3epsilon) protein …; assay: ELISA, antigen coated on plate

| Binder | EC50 |
| --- | --- |
| B1 | 0.049 nM |
| B4 | 0.033 nM |
| B5 | 0.053 nM |
| B6 | 0.074 nM |
| B7 | 0.026 nM |
| B8 | 0.012 nM |
| B9 | 0.069 nM |
| B10 | 0.011 nM |

molecular target: T1, Cynomolgus Monkey CD3 epsilon protein; assay: ELISA, antigen coated on plate; remark: another data set of the same source

| Binder | EC50 |
| --- | --- |
| B1 | 0.033 nM |
| B4 | 0.025 nM |
| B5 | 0.024 nM |
| B6 | 0.028 nM |
| B7 | 0.019 nM |
| B8 | 0.011 nM |
| B9 | 0.028 nM |
| B10 | 0.009 nM |

molecular target: T5, human CD3 expressed on cells (Jurkat …); assay: flow cytometry on Jurkat cells, one site saturation fit; design: Best fit-Bmax: unit not given here; remark: another data set of the same source

| Binder | Best fit-Bmax | Kd |
| --- | --- | --- |
| B1 | 1.26e-10 | 1.67 nM |
| B4 | 1.2e-10 | 2.23 nM |
| B5 | 1.13e-10 | 0.934 nM |
| B6 | 1.12e-10 | 0.403 nM |
| B7 | 1.3e-10 | 1.32 nM |
| B8 | 1.17e-10 | 0.191 nM |
| B9 | 1.3e-10 | 2.29 nM |
| B10 | 1.19e-10 | 0.252 nM |

molecular target: T3, Human CD3 epsilon (CD3epsilon) protein …; assay: ELISA, antigen coated on plate; remark: another data set of the same source

| Binder | ELISA (A450) |
| --- | --- |
| B1 | 2.76 A450 |
| B4 | 2.82 A450 |
| B5 | 2.83 A450 |
| B6 | 2.79 A450 |
| B7 | 2.91 A450 |
| B8 | 2.91 A450 |
| B9 | 2.95 A450 |
| B10 | 2.92 A450 |

molecular target: T6, mouse CD3epsilon protein (mouse, UniProt P22646 22-108, limits assumed); assay: ELISA, antigen coated on plate
T6 sequence (P22646 22-108 limits assumed): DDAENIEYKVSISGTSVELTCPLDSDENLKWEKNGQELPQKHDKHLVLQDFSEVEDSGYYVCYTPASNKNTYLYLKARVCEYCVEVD

| Binder | ELISA (A450) |
| --- | --- |
| B1 | 0.446 A450 |
| B4 | 0.471 A450 |

molecular target: T1, Cynomolgus Monkey CD3 epsilon protein; assay: ELISA, antigen coated on plate; remark: another data set of the same source

| Binder | ELISA (A450) |
| --- | --- |
| B1 | 2.81 A450 |
| B4 | 2.71 A450 |
| B5 | 2.79 A450 |
| B6 | 2.76 A450 |
| B7 | 2.83 A450 |
| B8 | 2.82 A450 |
| B9 | 2.87 A450 |
| B10 | 2.75 A450 |

molecular target: T5, human CD3 expressed on cells (Jurkat …); assay: flow cytometry on human CD4 T cells

| Binder | EC50 |
| --- | --- |
| B1 | 3.51 nM |
| B8 | 0.461 nM |
| B2 | 1.01 nM |
| B3 | 0.253 nM |

molecular target: T5, human CD3 expressed on cells (Jurkat …); assay: flow cytometry on Jurkat cells
Experimental: Various concentrations of testing mAbs were added to Jurkat cells, and then the binding activity of mAbs onto the surface of cells was detected by 2nd antibody-FITC. OKT3 was used as the positive control. The stained cells were analyzed by using a BD Biosciences FACSCanto II instrument and Flow Jo Version software. The binding EC₅₀ were calculated by using GraphPad Prism software equation: Nonlinear regression (curve fit)—log (agonist) vs. response-Variable slope.

| Binder | EC50 | MFI (FACS) |
| --- | --- | --- |
| B1 | 6.91 nM | 2140 MFI |
| B4 | 4.65 nM | 2220 MFI |
| B5 | 2.5 nM | 2740 MFI |
| B6 | 0.91 nM | 2130 MFI |
| B7 | 2.97 nM | 2270 MFI |
| B8 | 0.57 nM | 3360 MFI |
| B9 | 3.71 nM | 2390 MFI |
| B10 | 0.77 nM | 984 MFI |

molecular target: T2, Human CD3 Gamma (CD3gamma) protein; assay: ELISA, antigen coated on plate

| Binder | binding result |
| --- | --- |
| B1 | no binding |
| B4 | no binding |
| B5 | no binding |
| B6 | no binding |
| B7 | no binding |
| B8 | no binding |
| B9 | no binding |
| B10 | no binding |

molecular target: T4, Human CD3 delta (CD3 delta) protein …; assay: ELISA, antigen coated on plate

| Binder | binding result |
| --- | --- |
| B1 | no binding |
| B4 | no binding |
| B5 | no binding |
| B6 | no binding |
| B7 | no binding |
| B8 | no binding |
| B9 | no binding |
| B10 | no binding |

molecular target: T6, mouse CD3epsilon protein; assay: ELISA, antigen coated on plate; remark: another data set of the same source

| Binder | binding result |
| --- | --- |
| B1 | no binding |
| B4 | no binding |
